The target of assay [1] is T1, human NPS receptor, 107I variant (human) (UniProt Q6W5P4).
T1 sequence: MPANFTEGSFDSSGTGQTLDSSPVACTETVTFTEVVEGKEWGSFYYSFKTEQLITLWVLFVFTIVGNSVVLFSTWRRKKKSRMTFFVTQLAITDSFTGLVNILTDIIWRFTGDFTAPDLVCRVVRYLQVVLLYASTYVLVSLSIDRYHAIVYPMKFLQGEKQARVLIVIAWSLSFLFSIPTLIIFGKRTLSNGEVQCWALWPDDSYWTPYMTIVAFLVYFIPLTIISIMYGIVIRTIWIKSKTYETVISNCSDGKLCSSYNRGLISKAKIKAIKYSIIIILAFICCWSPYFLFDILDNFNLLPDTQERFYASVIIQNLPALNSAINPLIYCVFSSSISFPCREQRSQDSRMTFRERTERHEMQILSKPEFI

In assay [2] the target is T2, human NPS receptor, 107N variant (human) (UniProt Q6W5P4).
T2 sequence: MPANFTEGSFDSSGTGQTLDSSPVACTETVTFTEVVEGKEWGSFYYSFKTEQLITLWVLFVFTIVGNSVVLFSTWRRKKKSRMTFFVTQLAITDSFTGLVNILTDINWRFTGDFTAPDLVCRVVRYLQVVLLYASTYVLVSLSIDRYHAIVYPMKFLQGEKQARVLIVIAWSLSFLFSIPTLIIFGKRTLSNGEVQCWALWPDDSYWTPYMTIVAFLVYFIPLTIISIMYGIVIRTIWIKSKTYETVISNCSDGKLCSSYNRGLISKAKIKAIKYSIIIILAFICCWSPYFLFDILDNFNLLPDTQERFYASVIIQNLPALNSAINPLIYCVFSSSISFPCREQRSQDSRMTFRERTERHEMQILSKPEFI

Assay [3] has as its target T3, mouse NPS receptor (mouse) (UniProt Q8BZP8).
T3 sequence: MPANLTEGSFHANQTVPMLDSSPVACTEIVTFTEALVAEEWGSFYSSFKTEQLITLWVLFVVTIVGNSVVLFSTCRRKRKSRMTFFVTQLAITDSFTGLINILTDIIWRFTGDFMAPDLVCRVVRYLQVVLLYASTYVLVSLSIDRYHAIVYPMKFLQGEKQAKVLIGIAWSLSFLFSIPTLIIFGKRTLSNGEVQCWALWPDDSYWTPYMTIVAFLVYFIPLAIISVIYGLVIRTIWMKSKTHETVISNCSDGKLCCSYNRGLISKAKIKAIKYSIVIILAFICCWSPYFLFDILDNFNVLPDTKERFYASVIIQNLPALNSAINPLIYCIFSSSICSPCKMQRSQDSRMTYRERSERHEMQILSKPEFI

These results are taken from article PMC5414581 (Neuropharmacology, 2017).

Where no end group is shown, it is not given here. Me2 = N,N-dimethyl-lysine

B1: 1. SerPheArgAsnGlyVal-NH2 (peptide)
peptide: SFRNGV-NH2
Molecule B1 yielded an EC50 of cAMP accumulation, HEK 293T hNPSR-107I cells in assay [1] of 1.95 nM. The same molecule came in with an EC50 of cAMP accumulation, HEK 293T hNPSR-107N cells in assay [2] of 427 nM. Also, in assay [3], the EC50 of cAMP accumulation, HEK 293T mNPSR cells came out at 13.4 nM and the EC50 of calcium mobilization, HEK 293T mNPSR cells worked out at 2.03 nM.

B2: 3. SerPheArgAsn-NH2 (peptide)
peptide: SFRN-NH2
B2: in assay [1], the EC50 of cAMP accumulation, HEK 293T hNPSR-107I cells amounted to 129 nM and the EC50 of calcium mobilization, CHO-Gα16 hNPSR-107I cells came out at 2.43 nM. In assay [2], the EC50 of cAMP accumulation, HEK 293T hNPSR-107N cells was above 10000 nM and the EC50 of calcium mobilization, CHO-Gα16 hNPSR-107N cells was 998 nM. For the same molecule, in assay [3], the EC50 of cAMP accumulation, HEK 293T mNPSR cells is 800 nM and the EC50 of calcium mobilization, HEK 293T mNPSR cells is 66.6 nM.

B3: 4. SerPheLysAsn-NH2 (peptide)
peptide: SFKN-NH2
Turning to B3, in assay [1], the EC50 of cAMP accumulation, HEK 293T hNPSR-107I cells worked out at 117 nM and the EC50 of calcium mobilization, CHO-Gα16 hNPSR-107I cells amounted to 3.02 nM. Moreover, in assay [3], the EC50 of cAMP accumulation, HEK 293T mNPSR cells was 911 nM and the EC50 of calcium mobilization, HEK 293T mNPSR cells was determined as 100 nM.

B4: 2. SerPheArgAsnGly-NH2 (peptide)
peptide: SFRNG-NH2
The molecule B4 registered an EC50 of cAMP accumulation, HEK 293T hNPSR-107I cells in assay [1] of 3060 nM. The molecule also had an EC50 of cAMP accumulation, HEK 293T hNPSR-107N cells in assay [2] above 10000 nM. Further, in assay [3], the EC50 of cAMP accumulation, HEK 293T mNPSR cells is above 10000 nM and the EC50 of calcium mobilization, HEK 293T mNPSR cells is 1010 nM.

B5: Neuropeptide S (peptide)
peptide: SFRNGVGTGMKKTSFQRAKS
Regarding B5, in assay [1], the EC50 of cAMP accumulation, HEK 293T hNPSR-107I cells is 4.19 nM and the EC50 of calcium mobilization, CHO-Gα16 hNPSR-107I cells worked out at 0.59 nM. In assay [2], the EC50 of cAMP accumulation, HEK 293T hNPSR-107N cells came out at 48.9 nM and the EC50 of calcium mobilization, CHO-Gα16 hNPSR-107N cells stood at 2 nM. In addition, in assay [3], the EC50 of cAMP accumulation, HEK 293T mNPSR cells turned out to be 3.67 nM and the EC50 of calcium mobilization, HEK 293T mNPSR cells worked out at 5.55 nM.

B6: 5. SerPheDimethylLysAsn-NH2 (peptide)
peptide: SFK(Me2)N-NH2
Regarding B6, the EC50 of calcium mobilization, CHO-Gα16 hNPSR-107I cells in assay [1] was found to be 43.5 nM.
